Measured values reported in patent US20240309360A1, “TRANS-ACTIVATORS AND METHODS AND USE THEREOF” (THE GOVERNING COUNCIL OF THE UNIVERSITY OF TORONTO, priority 2021, published 2024).

B1: SRF: Serum Response Factor (protein)
chain: MLPTQAGAAAALGRGSALGGSLNRTPTGRPGGGGGTRGANGGRVPGNGAGLGPGRLEREAAAAAATTPAPTAGALYSGSEGDSESGEEEELGAERRGLKRSLSEMEIGMVVGGPEASAAATGGYGPVSGAVSGAKPGKKTRGRVKIKMEFIDNKLRRYTTFSKRKTGIMKKAYELSTLTGTQVLLLVASETGHVYTFATRKLQPMITSETGKALIQTCLNSPDSPPRSDPTTDQRMSATGFEETDLTYQVSESDSSGETKDTLKPAFTVTNLPGTTSTIQTAPSTSTTMQVSSGPSFPITNYLAPVSASVSPSAVSSANGTVLKSTGSGPVSSGGLMQLPTSFTLMPGGAVAQQVPVQAIQVHQAPQQASPSRDSSTDLTQTSSSGTVTLPATIMTSSVPTTVGGHMMYPSPHAVMYAPTSGLGDGSLTVLNAFSQAPSTMQVSHSQVQEPGGVPQVFLTASSGTVQIPVSAVQLHQMAVIGQQAGSSSNLTELQVVNLDTAHSTKSE
modifications: left off: things letters cannot carry; small tags and cut ends
notes: Serum Response Factor
B2: C3orf62: full-length C3orf62 protein (protein)
chain: MHYIKTWSLLGEMSEKLRRCRKELTAAIDRAFEGVSYSQECTGQQRLELSAAPLSFSLPVHRLLCRRHPLAACSSAAPFAAVPCAPENENPAFATNHAPVNAKPHALCPERKPLTSKENVLMHSSILAPERESWRTAGEGENWRKENLRKDMERDLKADSNMPLNNSSQEVTKDLLDMIDHTSIRTIEELAGKIEFENELNHMCGHCQDSPFKEEAWALLMDKSPQKATDADPGSLKQAFDDHNIVETVLDLEEDYNVMTSFKYQIE
modifications: left off: things letters cannot carry; small tags and cut ends
notes: full-length C3orf62 protein
B3: SPDYE4-CITED1-P65-HSF1: multi-component effector of SPDYE4, CITED1, p65 and HSF1 activation domains (protein)
chain: MDPSPQPQSLGLKRKSEWSDESEEELEEELELERAPEPEDTWVVETLCGLKMKLKRKRASSGGSGGSESLSPSAGAQSPAIIDSDPVDEEVLMSLVVELGLDRANELPELWLGQNEFDFTADFPSSCGGSINSRSSGSPKKKRKVGSQYLPDTDDRHRIEEKRKRTYETFKSIMKKSPFSGPTDPRPPPRRIAVPSRSSASVPKPAPQPYPFTSSLSTINYDEFPTMVFPSGQISQASALAPAPPQVLPQAPAPAPAPAMVSALAQAPAPVPVLAPGPPQAVAPPAPKPTQAGEGTLSEALLQLQFDDEDLGALLGNSTDPAVFTDLASVDNSEFQQLLNQGIPVAPHTTEPMLMEYPEAITRLVTGAQRPPDPAPAPLGAPGLPNGLLSGDEDFSSIADMDFSALLGSGSGSGFSVDTSALLDLFSPSVTVPDMSLPDLDSSLASIQELLSPQEPPRPPEAENSSPDSGKQLVHYTAQPLFLLDPGSVDTGSNDLPVLFELGEGSYFSEGDGFAEDPTISLLTGSEPPKAKDPTVS

How the values were obtained:
[1] = test system: NIH3T3 cells gene expression; assay: RNA sequencing of NIH-3T3 cells with doxycycline-inducible EGFP-tagged constructs; type: cell-based, mouse; conditions: GFP-tagged
Text: The SRF/TCF pathway, which is regulated by MAP kinase signaling, regulates the expression of immediate-early genes (Gualdrini et al., 2016), whereas the actin-Rho signaling dependent SRF/MRTF pathway targets genes involved in cell motility and adhesion (Miralles et al., 2003). To test if SRF-C3orf62 can regulate target genes of both pathways, stable doxycycline-inducible NIH3T3 cell lines stably expressing SRF, C3orf62, SRF-C3orf62 and Nanoluc fused to GFP were generated. Transgene expression was induced with doxycycline for 24 hours and changes in gene expression were analyzed by RNA-seq. […] These signatures are consistent with the oncogenic nature of the SRF-C3orf62 fusion. […] In contrast, many well-characterized immediate-early target genes of SRF/TCF such as FOS, EGR1, or EGR2 were not affected by ectopic SRF-C3orf62 expression (FIG. 5H).
RNA sequencing and analysis. NIH-3T3 cells with stable integrations of SRF, C3orf62, SRF-C3orf62 or Nanoluc tagged at the C-terminus with EGFP were induced with 1 μg/mL doxycycline for 24 hours. […] Reads were aligned to the Gencode mouse primary assembly (GRCm39) with STAR aligner v2.7.8a. […] Changes in gene expression compared to cells expressing Nanoluc-EGFP were quantified using the edgeR package (Robinson et al., 2010).

[2] = test system: serum response element reporter in NIH3T3 cells; assay: SRF reporter assay (SRE-Firefly luciferase); type: cell-based, mouse; conditions: NIH3T3 fibroblasts, 3×FLAG tagged constructs, no cofactors
Procedure: SRF functions together with either ternary complex factors (TCFs; e.g. ELK1) or myocardin-related transcription factors (MRTFs; e.g. MAL) to regulate target gene expression (Buchwalter et al., 2004; Olson and Nordheim, 2010). […] To test this further, the activity of different constructs was assayed in NIH3T3 fibroblasts using a luciferase-based serum response element reporter (Vartiainen et al., 2007).
SRF reporter assay. 30,000 NIH-3T3 cells on 24-well plates were transfected with 8 ng SRF reporter (p3DA.luc), 20 ng reference reporter (pcDNA3.1-Nanoluc-3×FLAG-V5) and 50 ng 3×FLAG tagged constructs (Addgene #87063). Transfection was carried out using Lipofectamine 3000 reagent (Thermo Fisher Scientific, L3000001) according to the manufacturer's protocols. Luciferase constructs were a kind gift from Dr. Maria Vartiainen (University of Helsinki). Cells were maintained in low-serum media (0.5% BCS) for 18 hours and stimulated for 7 hours (15% BCS), after which luciferase activity was measured. Firefly luciferase was normalized to Renilla luciferase activity using data from four independent transfections.

[3] = test system: 7×TetO-EGFP reporter in HEK293T cells; assay: 117 effector domains with rTetR or dCas9 based recruitment systems; type: cell-based, human; conditions: rTetR fusion (1 μg/ml doxycycline 48 hours) or PYL1 with dCas9-ABI1
Procedure: A further 117 different combinations of activation domains or fragments of individual activation domains were assayed by fusing them either to PYL1 (to test with the dCas9-ABI1 system) or to rTetR, a transcription factor that binds DNA in the presence of doxycycline. All constructs were tested with the same TetO reporter construct.
Methods: 200 ng of plasmid expressing super activators fused to rTetR in their C terminus and 50 ng DsRed was transfected into HEK293T cells stably expressing 7×TetO-EGFP reporter. One day after transfection, cells were treated with 1 μg/ml doxycycline for 48 hours. After the treatment, cells were analyzed by flow cytometry for EGFP expression

[4] = test system: EGFP reporter (TetO7) in HEK293T cells; assay: Multi-TAD effectors fused to PYL1 recruited to EGFP reporter; type: cell-based, human; conditions: PYL1 fusion, 1 μM abscisic acid, 24 or 48 hours
Procedure: Multiple TADs were fused together with PYL1 and tested for transcriptional activity using the PYL1-ABI EGFP reporter system described above. The following TAD fragments were used: CITED1-8 (SEQ ID NO: 47), CITED2-12 (SEQ ID NO: 49), C3orf62-12 (SEQ ID NO: 45), BRD8-25 (SEQ ID NO: 40), ZXDC-12 (SEQ ID NO: 97), KLF7-1 (SEQ ID NO: 72), ATXN7L3-1 (SEQ ID NO: 35), FAM90A1-20 (SEQ ID NO: 60), SPDYE4-3 (SEQ ID NO: 90), YAF2-7 (SEQ ID NO: 96).
Methods: Cells were seeded on 48-well plates. Next day, after cells were between 70-90% confluent, 250 ng of each construct was transfected in each well using (Thermo Fisher Scientific, 11668019) reagent. Each construct was either directly fused TagRFP either directly fused to each component or being co-expressed from the same plasmid was used as a measure of transfection. In each experiment, the same gate for RFP+ cells were used to control for the effect of each construct's expression levels on activity. EGFP reporter cells were expanded from a clonal line to control for level of ABI-dCas9 and gRNA targeting the TetO7 sites upstream of the promoter. For the CD133 induction experiment, a 293T cell line stably expressing ABI-dCas9 and a pool of 5 gRNAs targeting the promoter were used for all activators. CD133 antibody conjugated to APC (Miltenyi Biotec, 130-113-668) was used. […]

[5] = test system: promoter of CD133 gene in HEK293T cells; assay: CD133 induction experiment; type: cell-based, human; conditions: PYL1 fusion, 1 μM abscisic acid, pool of 5 gRNAs
Procedure: Up to 2 additional TADs selected from p65 and HSF1 were combined with SPDYE4-CITED1 TADs in different orders and tested for the ability to activate transcription of the PYL1-ABI EGFP reporter system (FIG. 17, left panel) or the endogenous CD133 gene (FIG. 17, right panel).
Methods: Cells were seeded on 48-well plates. Next day, after cells were between 70-90% confluent, 250 ng of each construct was transfected in each well using (Thermo Fisher Scientific, 11668019) reagent. Each construct was either directly fused TagRFP either directly fused to each component or being co-expressed from the same plasmid was used as a measure of transfection. In each experiment, the same gate for RFP+ cells were used to control for the effect of each construct's expression levels on activity. EGFP reporter cells were expanded from a clonal line to control for level of ABI-dCas9 and gRNA targeting the TetO7 sites upstream of the promoter. For the CD133 induction experiment, a 293T cell line stably expressing ABI-dCas9 and a pool of 5 gRNAs targeting the promoter were used for all activators. CD133 antibody conjugated to APC (Miltenyi Biotec, 130-113-668) was used. All activator constructs were fused to PYL1 at their C-terminus and were recruited to their targets by treating the cells with 1 μM abscisic acid for either 24 or 48 hours.

| Molecule | effects on the transcriptome compared to Nanoluc [1] | activation of serum response element luciferase reporter [2] | activity of effector constructs on TetO reporter [3] | transcriptional activation of EGFP reporter by TAD fusions [4] | activation of endogenous CD133 gene [5] |
| --- | --- | --- | --- | --- | --- |
| B1 | very limited or no effects on the transcriptome | did not activate the reporter |  |  |  |
| B2 | very limited or no effects on the transcriptome | did not activate the reporter |  |  |  |
| B3 |  |  | the most active constructs in the system | most robust activation | most robust activation |
